# B1: 4A5 (antibody, V domains shown)
# VH: EVKLVESGGGLVKPGGSLKLSCAASGFTFSSYAMSWVRQIPEKRLEWVASISRGGTTYYPDSVKGRFTISRDNVRNILYLQMSSLRSEDTAMYYCGRYDYDGYYAMDYWGQGTSVTVSS
# VL: DIKMTQSPSSMYASLGERVTITCKASPDINSYLSWFQQKPGKSPKTLIYRANRLVDGVPSRFSGGGSGQDYSLTINSLEYEDMGIYYCLQYDEFPYTFGGGTKLEMK
# B2: ATX-P-885 (antibody, human IgG1, kappa, V domains shown)
# VH: QVQLQQWGAGLLKPSETLSLTCAVYGGSFSGYYWSWIRQPPGKGLEWIGEINHSGSTNYNPSLKSRVTISVDTSKNQFSLKLSSVTAADTAVYYCAREGVYEDYWGQGTLVTVSS
# VL: EIVLTQSPATLSLSPGERATLSCRASQSVSNYLAWYQQKPGQAPRLLIYDAYNRATGIPARFSGSGSGTDFTLTISSLEPEDFAVYYCQQRSNWPLTFGQGTRLEIKR
# notes: also called mAb B
# B3: UC961 (ATX-P-453) (antibody, V domains shown)
# VH: QVQLQESGPGLVKPSQTLSLTCTVSGYAFTAYNIHWVRQAPGQGLEWMGSFDPYDGGSSYNQKFKDRLTISKDTSKNQVVLTMTNMDPVDTATYYCARGWYYFDYWGHGTLVTVSS
# VL: DIVMTQTPLSLPVTPGEPASISCRASKSISKYLAWYQQKPGQAPRLLIYSGSTLQSGIPPRFSGSGYGTDFTLTINNIESEDAAYYFCQQHDESPYTFGEGTKVEIK
# B4: ATX-P-875 (antibody, human IgG1, kappa, V domains shown)
# VH: not shown
# VL: DIQMTQSPSSLSASVGDRVTITCRASQSISSYLNWYQQKPGKAPKLLIYAASSLQSGVPSRFSGSGSGTDFTLTISSLQPEDFATYYCQQYDNLPITFGQGTRLEIKR
# notes: also called mAb A
# How the values were obtained:
# Hu/Cy/Rh ROR1 - His [1] = molecular target: T1, Hu/Cy/Rh ROR1 - His (human/cynomolgus/rhesus (Hu/Cy/Rh), UniProt Q01973 30-403, limits assumed); experiment: SPR (Carterra); cell 'Kinetics (KD)' of 4A5 in the row and the column heads of the binning table; no unit is printed on the sheet, the four other KD cells equal the KD (M) values of Table 2 for Hu/Cy/Rh ROR1 - His
# T1 construct: Purified His-tagged protein; also called human/cyno/rhesus ROR-1; not shown: His tag
# [2] = molecular target: T2, human ROR-1 endogenously expressed on JeKo-1 and MDA-MB-468 cells (human, UniProt Q01973 30-937); experiment: flow cytometry, antibody titration on ROR-1 positive JeKo-1 cells, secondary antibody staining, Net MFI [right panel]
# T2 construct: whole, on cells; also called ROR-1 receptor; receptor tyrosine kinase like orphan receptor 1
# Excerpt: FIG. 27 illustrates a measurement of cell binding saturation data for the anti-ROR-1 antibodies generated by the methods described herein. […] Cells were washed, stained with secondary antibody and cell binding saturation was detected by flow cytometry and reported as mean fluorescent intensity (MFI).
# A cell binding saturation assay was developed to evaluate how well the anti_ROR-1 antibodies developed in Example 28 bound to endogenously expressed extracellular ROR-1 protein on cell lines. […] Briefly, two ROR-1 positive cell lines, JeKo-1 and MDA-MB-468, were incubated in a titration series concentration of each antibody construct. Cells were then washed and subjected to secondary antibody staining and detection by flow cytometry. Mean fluorescence (MFI) was determined by analysis on cytometer software. […] (See FIG. 27).
# [3] = molecular target: T2, human ROR-1 endogenously expressed on …; experiment: cellular binning by flow cytometry on MDA-MB-468 cells; antibody titrated, stained with labelled secondary antibody, % Top MFI [29C middle panel]
# Description: (§1) Next, the anti-ROR-1 antibodies were fluorescently labeled with a secondary antibody.
# (§2) In Step 2, a fluorescently labeled secondary antibody recognizing the novel antibodies was incubated with the samples.
# [4] = molecular target: T2, human ROR-1 endogenously expressed on …; experiment: cellular binning by flow cytometry on MDA-MB-468 cells; antibody titrated, stained with labelled secondary antibody, % Top MFI [29D middle panel]
# Description: as §1, §2
# [5] = molecular target: T2, human ROR-1 endogenously expressed on …; experiment: cellular binning by flow cytometry on MDA-MB-468 cells; ATX-P-885 titrated first, then a saturating dose of the competitor Dy650-UC961; partial inhibition [29C middle panel]
# Description: as §1, §2
# [6] = molecular target: T2, human ROR-1 endogenously expressed on …; experiment: cell-based or functional assay
# Hu/Cy/Rh ROR1 - His [7] = molecular target: T1, Hu/Cy/Rh ROR1 - His; experiment: SPR, binding to purified His-tagged protein
# [8] = molecular target: T2, human ROR-1 endogenously expressed on …; experiment: flow cytometry, antibody titration on ROR-1 positive JeKo-1 cells, secondary antibody staining, Net MFI [left panel]
# [9] = molecular target: T2, human ROR-1 endogenously expressed on …; experiment: cellular binning by flow cytometry on MDA-MB-468 cells; antibody titrated, stained with labelled secondary antibody, % Top MFI [29C left panel]
# Description: as §1, §2
# [10] = molecular target: T2, human ROR-1 endogenously expressed on …; experiment: cellular binning by flow cytometry on MDA-MB-468 cells; antibody titrated, stained with labelled secondary antibody, % Top MFI [29D left panel]
# Description: as §1, §2
# [11] = molecular target: T2, human ROR-1 endogenously expressed on …; experiment: cellular binning by flow cytometry on MDA-MB-468 cells; ATX-P-875 titrated first, then a saturating dose of the competitor 4A5-PE [29D left panel]
# Description: as §1, §2
binder,measurement,setting,value
B1,Kd,Hu/Cy/Rh ROR1 - His [1],2.81 nM
B2,EC50 (read off the curve),[2],~0.3 nM
same,EC50 (read off the curve),[3],~3 nM
same,EC50 (read off the curve),[4],~2 nM
same,IC50 (read off the curve),[5],~3 nM
B3,"percent receptor internalization relative to time zero (flow cytometry of antibody remaining on the surface, JeKo-1 and MDA-MB-468)",[6],≥ 75%
same,Kd,Hu/Cy/Rh ROR1 - His [7],4.69 nM
same,koff,Hu/Cy/Rh ROR1 - His [7],0.00591 s⁻¹
same,kon,Hu/Cy/Rh ROR1 - His [7],1.26e+06 M⁻¹ s⁻¹
same,EC50 (read off the curve),[8],~0.02 nM
same,EC50 (read off the curve),[2],~0.1 nM
B4,EC50 (read off the curve),[9],~0.9 nM
same,EC50 (read off the curve),[10],~0.6 nM
same,IC50 (read off the curve),[11],~0.7 nM

# — US20230123041A1 (IMMUNOME, published 2023)
